Data taken from paper PMC9482650, “Quantitative fragmentomics allow affinity mapping of interactomes” (Nature Communications, 2022).

T1: MPDZ_12, O75970
T1 sequence (O75970 1857-1958, limits assumed, looked up): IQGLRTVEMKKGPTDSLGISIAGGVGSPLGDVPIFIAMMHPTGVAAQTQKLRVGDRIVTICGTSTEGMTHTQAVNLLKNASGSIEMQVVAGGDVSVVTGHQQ

T2: DLG3_3, Q92796
T2 sequence (Q92796 374-475, limits assumed, looked up): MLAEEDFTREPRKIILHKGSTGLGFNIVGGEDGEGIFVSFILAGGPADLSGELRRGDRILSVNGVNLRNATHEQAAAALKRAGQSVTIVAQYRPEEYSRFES

T3: TJP3_3, O95049
T3 sequence (O95049 375-456, limits assumed, looked up): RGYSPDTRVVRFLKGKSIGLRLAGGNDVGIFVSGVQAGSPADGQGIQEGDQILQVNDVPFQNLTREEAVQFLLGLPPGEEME

T4: PDZD7_3, Q9H5P4
T4 sequence (Q9H5P4 857-944, limits assumed, looked up): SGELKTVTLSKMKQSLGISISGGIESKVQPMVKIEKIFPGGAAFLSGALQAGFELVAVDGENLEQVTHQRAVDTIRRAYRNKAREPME

T5: DFNB31_2, Q9P202
T5 sequence (Q9P202 274-371, limits assumed, looked up): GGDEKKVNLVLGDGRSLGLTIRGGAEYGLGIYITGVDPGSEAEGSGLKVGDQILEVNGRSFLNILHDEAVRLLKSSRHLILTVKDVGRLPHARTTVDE

T6: DLG3_2, Q92796
T6 sequence (Q92796 221-321, limits assumed, looked up): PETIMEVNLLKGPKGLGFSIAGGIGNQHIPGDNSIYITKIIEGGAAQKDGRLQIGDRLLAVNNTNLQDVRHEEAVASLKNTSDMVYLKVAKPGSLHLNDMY

T7: APBA2_2, Q99767
T7 sequence (Q99767 654-744, limits assumed, looked up): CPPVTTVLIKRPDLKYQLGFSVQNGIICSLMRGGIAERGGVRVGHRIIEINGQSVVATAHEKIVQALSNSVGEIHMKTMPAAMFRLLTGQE

T8: CARD11, Q9BXL7
T8 sequence (Q9BXL7 662-765, limits assumed, looked up): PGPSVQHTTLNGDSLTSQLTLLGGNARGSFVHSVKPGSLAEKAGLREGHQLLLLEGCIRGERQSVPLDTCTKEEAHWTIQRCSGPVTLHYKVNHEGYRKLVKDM

T9: MPP2, Q14168
T9 sequence (Q14168 180-250, limits assumed, looked up): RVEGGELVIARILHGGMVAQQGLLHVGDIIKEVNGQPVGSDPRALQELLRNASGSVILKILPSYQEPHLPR

T10: SHANK1, Q9Y566
T10 sequence (Q9Y566 658-767, limits assumed, looked up): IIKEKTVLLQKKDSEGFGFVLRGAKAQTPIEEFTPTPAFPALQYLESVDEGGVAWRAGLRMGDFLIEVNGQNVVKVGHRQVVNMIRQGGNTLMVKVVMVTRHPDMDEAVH

T11: LNX2_2, Q8N448
T11 sequence (Q8N448 334-432, limits assumed, looked up): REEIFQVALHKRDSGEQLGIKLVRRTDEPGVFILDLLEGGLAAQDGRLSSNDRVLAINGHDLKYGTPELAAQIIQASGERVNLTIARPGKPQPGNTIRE


Key:
Assay in all cases: holdup assay
Parameters in all cases: key: below the threshold = too weak to quantify, mostly under pKd 3.1 to 4
Details in all cases: plain residues with an end cap or a label only (N-terminal biotin on a linker: ado-ado)
FRMPD2_3, Q68DX3 = target: FRMPD2_3, Q68DX3
DLG4_1, P78352 = target: DLG4_1, P78352
MAGI3_2, Q5TCQ9 = target: MAGI3_2, Q5TCQ9
GRIP2_4, Q9C0E4 = target: GRIP2_4, Q9C0E4
PTPN3, P26045 = target: PTPN3, P26045
GRIP2_5, Q9C0E4 = target: GRIP2_5, Q9C0E4
MPDZ_12, O75970 = target: T1, MPDZ_12, O75970
DLG3_3, Q92796 = target: T2, DLG3_3, Q92796
IL16_3, Q14005 = target: IL16_3, Q14005
TJP3_3, O95049 = target: T3, TJP3_3, O95049
CASK, O14936 = target: CASK, O14936
MAGI2_6, Q86UL8 = target: MAGI2_6, Q86UL8
TJP1_3, Q07157 = target: TJP1_3, Q07157
PDZD7_3, Q9H5P4 = target: T4, PDZD7_3, Q9H5P4
GRIP2_3, Q9C0E4 = target: GRIP2_3, Q9C0E4
DFNB31_2, Q9P202 = target: T5, DFNB31_2, Q9P202
DLG3_2, Q92796 = target: T6, DLG3_2, Q92796
Inadl_1, Q8NI35 = target: Inadl_1, Q8NI35
APBA2_2, Q99767 = target: T7, APBA2_2, Q99767
CARD11, Q9BXL7 = target: T8, CARD11, Q9BXL7
MPP2, Q14168 = target: T9, MPP2, Q14168
SHANK1, Q9Y566 = target: T10, SHANK1, Q9Y566
MAGI2_4, Q86UL8 = target: MAGI2_4, Q86UL8
LNX2_2, Q8N448 = target: T11, LNX2_2, Q8N448
LIMK2, P53671 = target: LIMK2, P53671
GRIP2_6, Q9C0E4 = target: GRIP2_6, Q9C0E4
Inadl_8, Q8NI35 = target: Inadl_8, Q8NI35
LDB3, O75112 = target: LDB3, O75112
Sequence of LDB3, O75112 (O75112 1-94): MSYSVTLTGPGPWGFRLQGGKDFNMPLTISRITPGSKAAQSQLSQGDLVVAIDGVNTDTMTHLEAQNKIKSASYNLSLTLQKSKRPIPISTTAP

Sequence of GRIP2_4, Q9C0E4 (Q9C0E4 446-548): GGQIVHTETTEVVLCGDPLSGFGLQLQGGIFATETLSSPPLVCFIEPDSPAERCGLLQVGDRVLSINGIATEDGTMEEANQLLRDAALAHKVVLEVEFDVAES
Sequence of FRMPD2_3, Q68DX3 (Q68DX3 1073-1166): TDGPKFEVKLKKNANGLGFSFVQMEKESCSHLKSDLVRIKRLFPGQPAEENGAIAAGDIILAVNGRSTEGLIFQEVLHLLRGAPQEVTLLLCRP
Sequence of LIMK2, P53671 (P53671 143-248): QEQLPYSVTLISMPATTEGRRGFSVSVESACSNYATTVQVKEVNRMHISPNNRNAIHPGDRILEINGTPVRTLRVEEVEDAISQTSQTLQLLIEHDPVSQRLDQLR
Sequence of MAGI2_6, Q86UL8 (Q86UL8 1141-1229): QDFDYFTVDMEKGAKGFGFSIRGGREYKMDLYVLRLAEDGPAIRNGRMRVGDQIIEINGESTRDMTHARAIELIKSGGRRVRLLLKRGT
Sequence of CASK, O14936 (O14936 487-570): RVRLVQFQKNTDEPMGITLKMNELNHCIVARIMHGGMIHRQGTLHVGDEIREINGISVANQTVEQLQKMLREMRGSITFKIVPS
Sequence of Inadl_1, Q8NI35 (Q8NI35 113-229): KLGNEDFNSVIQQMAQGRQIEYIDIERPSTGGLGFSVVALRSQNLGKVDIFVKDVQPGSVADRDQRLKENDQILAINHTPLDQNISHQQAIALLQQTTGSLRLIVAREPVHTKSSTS
Sequence of GRIP2_6, Q9C0E4 (Q9C0E4 648-740): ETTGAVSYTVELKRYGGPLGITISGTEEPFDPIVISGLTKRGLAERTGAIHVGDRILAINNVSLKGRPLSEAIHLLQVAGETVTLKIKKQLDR
Sequence of TJP1_3, Q07157 (Q07157 416-512): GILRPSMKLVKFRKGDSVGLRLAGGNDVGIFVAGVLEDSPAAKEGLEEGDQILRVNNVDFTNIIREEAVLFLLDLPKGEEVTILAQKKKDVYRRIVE
Sequence of PTPN3, P26045 (P26045 505-587): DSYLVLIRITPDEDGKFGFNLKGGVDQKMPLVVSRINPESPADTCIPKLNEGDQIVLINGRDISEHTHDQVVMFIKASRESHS
Sequence of MAGI2_4, Q86UL8 (Q86UL8 772-865): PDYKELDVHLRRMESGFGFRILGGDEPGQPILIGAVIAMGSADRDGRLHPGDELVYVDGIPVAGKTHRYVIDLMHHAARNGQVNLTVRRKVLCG
Sequence of MAGI3_2, Q5TCQ9 (Q5TCQ9 398-503): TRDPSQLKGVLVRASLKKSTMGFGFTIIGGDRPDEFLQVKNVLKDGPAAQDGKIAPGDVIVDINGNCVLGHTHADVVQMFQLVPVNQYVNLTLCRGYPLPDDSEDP
Sequence of GRIP2_5, Q9C0E4 (Q9C0E4 544-642): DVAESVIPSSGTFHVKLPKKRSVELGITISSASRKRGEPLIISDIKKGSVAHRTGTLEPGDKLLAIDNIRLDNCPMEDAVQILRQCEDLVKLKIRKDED
Sequence of IL16_3, Q14005 (Q14005 1107-1207): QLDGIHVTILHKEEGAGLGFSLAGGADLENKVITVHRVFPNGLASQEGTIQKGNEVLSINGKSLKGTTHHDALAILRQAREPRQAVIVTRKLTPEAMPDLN
Sequence of DLG4_1, P78352 (P78352 62-152): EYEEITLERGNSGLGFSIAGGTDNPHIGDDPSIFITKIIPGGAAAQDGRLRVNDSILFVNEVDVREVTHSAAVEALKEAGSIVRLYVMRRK
Sequence of Inadl_8, Q8NI35 (Q8NI35 1425-1530): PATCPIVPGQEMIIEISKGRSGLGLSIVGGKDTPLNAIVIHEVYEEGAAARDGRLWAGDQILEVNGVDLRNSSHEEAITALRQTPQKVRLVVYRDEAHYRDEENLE
Sequence of GRIP2_3, Q9C0E4 (Q9C0E4 238-339): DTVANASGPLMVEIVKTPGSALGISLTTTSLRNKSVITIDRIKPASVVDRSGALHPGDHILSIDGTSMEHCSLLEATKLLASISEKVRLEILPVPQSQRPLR

| Binder | pKd (FRMPD2_3, Q68DX3) | pKd (DLG4_1, P78352) | pKd (MAGI3_2, Q5TCQ9) | pKd (GRIP2_4, Q9C0E4) | pKd (PTPN3, P26045) | pKd (GRIP2_5, Q9C0E4) | pKd (MPDZ_12, O75970) | pKd (DLG3_3, Q92796) | pKd (IL16_3, Q14005) | pKd (TJP3_3, O95049) | pKd (CASK, O14936) | pKd (MAGI2_6, Q86UL8) | pKd (TJP1_3, Q07157) | pKd (PDZD7_3, Q9H5P4) | pKd (GRIP2_3, Q9C0E4) | pKd (DFNB31_2, Q9P202) | pKd (DLG3_2, Q92796) | pKd (Inadl_1, Q8NI35) | pKd (APBA2_2, Q99767) | pKd (CARD11, Q9BXL7) | further results |
| --- | --- | --- | --- | --- | --- | --- | --- | --- | --- | --- | --- | --- | --- | --- | --- | --- | --- | --- | --- | --- | --- |
| DDENIRTSDV [PLEKHA2, Q9HB19] | below the threshold | 3.69 | 4.05 | below the threshold | 4.6 | below the threshold | below the threshold | below the threshold | below the threshold | below the threshold | below the threshold | 5.21 | below the threshold | 4.73 | below the threshold | below the threshold | 4.38 | below the threshold | below the threshold | below the threshold | pKd (MPP2, Q14168): below the threshold; pKd (SHANK1, Q9Y566): below the threshold; pKd (MAGI2_4, Q86UL8): below the threshold; pKd (LNX2_2, Q8N448): below the threshold; pKd (LIMK2, P53671): below the threshold; pKd (GRIP2_6, Q9C0E4): below the threshold; pKd (Inadl_8, Q8NI35): 4.94; pKd (LDB3, O75112): below the threshold |
| KKMPSIESDV [GRIN2A, Q12879] | below the threshold | 4.71 | 4.32 | below the threshold | 4.44 | below the threshold | below the threshold | below the threshold | below the threshold | below the threshold | below the threshold | 4.91 | below the threshold | below the threshold | below the threshold | below the threshold | 5.25 | below the threshold | below the threshold | below the threshold | pKd (MPP2, Q14168): below the threshold; pKd (SHANK1, Q9Y566): below the threshold; pKd (MAGI2_4, Q86UL8): below the threshold; pKd (LNX2_2, Q8N448): below the threshold; pKd (LIMK2, P53671): below the threshold; pKd (GRIP2_6, Q9C0E4): below the threshold; pKd (Inadl_8, Q8NI35): 3.76; pKd (LDB3, O75112): below the threshold |
| AKPSRISTVV [IQSEC2, Q5JU85] | below the threshold | 4.82 | 5.42 | below the threshold | 4.21 | below the threshold | 3.49 | 4.18 | below the threshold | below the threshold | below the threshold | below the threshold | below the threshold | 5.21 | below the threshold | below the threshold | 5.33 | below the threshold | below the threshold | below the threshold | pKd (MPP2, Q14168): below the threshold; pKd (SHANK1, Q9Y566): 3.96; pKd (MAGI2_4, Q86UL8): 4.68; pKd (LNX2_2, Q8N448): 5.09; pKd (LIMK2, P53671): below the threshold; pKd (GRIP2_6, Q9C0E4): below the threshold; pKd (Inadl_8, Q8NI35): 3.89; pKd (LDB3, O75112): below the threshold |
| TSQESEDTYL [TBC1D10A, Q9BXI6] | below the threshold | below the threshold | below the threshold | below the threshold | 4.88 | below the threshold | below the threshold | below the threshold | below the threshold | below the threshold | below the threshold | 3.98 | below the threshold | 3.9 | below the threshold | below the threshold | 3.61 | below the threshold | below the threshold | below the threshold | pKd (MPP2, Q14168): below the threshold; pKd (SHANK1, Q9Y566): 4.99; pKd (MAGI2_4, Q86UL8): below the threshold; pKd (LNX2_2, Q8N448): below the threshold; pKd (LIMK2, P53671): below the threshold; pKd (GRIP2_6, Q9C0E4): below the threshold; pKd (Inadl_8, Q8NI35): below the threshold; pKd (LDB3, O75112): below the threshold |
